The nature of the series: yeast display, Sf9 membrane polyspecificity reagent, FACS + sequencing; frameworks hold sequencing errors. In a few lines:
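Polyreactivity labels are assigned by the sorting gate from which each nanobody was recovered. The gates were low and high (top ~1%), set on anti-HA fluorescence for expression and streptavidin fluorescence for reagent binding. Before sorting, galactose-induced (36–48 hours) yeast display cells were stained for 1 hour at 4 °C with 10% biotinylated, detergent-solubilized Sf9 membrane reagent.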
For “QVQLVESGGGLVQAGGILRLSCDASGITFSTYAMGWYRQAPGKERELVAAITRSGGTYYADSVKGSFTISRDNAKNTVYLQMNSLKPEDTAVYYCAASYTVFGVRRYGYWGQGTQVTVSS”, the “polyreactivity (PSR sort gate)” value is given as “high polyreactivity”.

As for “QVQLVESGGGLVQAGGSLRLSCAASGFIFPRYAMGWYRPAPGTERELVAAISRSGGITRYADSVKGRFTISRDNAKNTVYLQINSLKPEDTAVYYCAAYIQGWVTAEWVRDDYWGQGTQVTVSS”, the “polyreactivity (PSR sort gate)” value was “high polyreactivity”.

On to “QVQLVESGGGLVQAGGSLRLSCAASVRTVDSYTMGWYRQAPGKERELVAAIRSSGGRTYADSVKGRFTISRDNAKNTVYLQMNSLKPEDTAVYYCAAARSYWAKYYYWGQGTQVTVSS”, for which the “polyreactivity (PSR sort gate)” value is reported as “high polyreactivity”.

Regarding “QVQLVESGGGLVQAGGSLRLSCADSGRIFGPYAMGWYRQAPGKERELVAAISGGGRTDYADSVKGRFTISRDNAKNTVYLQMNSLKPEDTAVYYCNADYTYWNGWFATRDYWGQGTQVTVSS”, the “polyreactivity (PSR sort gate)” value was “low polyreactivity”.

As to “QVQLVESGGGLVQAGGSLRLSCAASGSIFYSNAMGWYRQAPGKERELVAAITSGGRTYYADSVKGRFTISRDNAKNTVYLQMNSLKPEDTAVFYCAARYYLGSWSDYYYWGQGTQVTVSS”, the “polyreactivity (PSR sort gate)” value is reported as “high polyreactivity”.

In the case of “QVQLVESGGGLVQAGGSLRLSCAASGSIFYRNAMGWYRQAPGKERELVAAISSDGSTNYADSVKGRFTISRDNAKNTVYLQMNSLKPEDTAVYDCAGLQKRRSYWRPFYWGQGTQVTVSS”, the “polyreactivity (PSR sort gate)” value is listed as “low polyreactivity”.

With “QVQLVESGGGLVQAGGSLRLSCAASGITFAYNVMGWYRQAPGKERELVAAISWTGSSTYYADSVKGRFTISRDNAKNTVYLQMNSLKQEDTAVYYCAARQRYRYDYWGQGTQVTVSS”, the “polyreactivity (PSR sort gate)” value is on record as “high polyreactivity”.

As to “QVQLVESGGGLVQAGGSLRLSCAASGSTFISYAMGWSRQAPGKERELVAAISRNGGRTYYADSVKGRFTISRDNAKNTVYLQMNSLKPEDTAVYYCAAAYNSYRFDYWGQGTQVTVSS”, the “polyreactivity (PSR sort gate)” value is “high polyreactivity”.

In the case of “QVQLVESGGGLVQAGGSLRLSCAASGITFSGNTMGWYRQAPGKERELVAAISSGGSTYYADSVKGRFTISRDNAKNTVYLQMNSLKPEDTAVYYCAVDYFYQDGRGYNEYWGQGTQVTVSS”, the “polyreactivity (PSR sort gate)” value is “low polyreactivity”.

On to “KVQLVESGGGLVQAGGSLRLSCAASGSTISGYAMGWYRQAPGKERELVAAITIGGGTYYADSVKGRFPISRDNAKNTVYLQMNSLKPEDTGVYYCNAYRRKLWYPTGMYWGQGTQVTVSW”, for which the “polyreactivity (PSR sort gate)” value was “high polyreactivity”.

Turning to “QVQLVESGGGLVQAGGSLRLICAASGSIFGINAMGWYRQAPGKERELVAAITWSGTSTYYADSVKGRFTISRDNAKNTDYLQMNSMKPEDTAVYYCAARVGRGYRTYGYWGQGTQVTVSS”, the “polyreactivity (PSR sort gate)” value is “high polyreactivity”.

In the case of “QDQLVESGGGLVQAGGSHRLSCAASGSIFYRNAMGWFRQAPGKERELVAAISARGGRTNYADSVKGRFTISRDNAKNTVYLQMTSLKPEDTAVYYCNTADSWYHRSQAYDYWGQGTQVTVSS”, the “polyreactivity (PSR sort gate)” value is “high polyreactivity”.

As to “QVQLVESGGGLVQAGGSLRLSCAASGFTIKYNTMGWYRQAPGKERELVAAITSNTGSTYYADSVKGRFTISRDNAKNTVYLQMNSLKPEDTAVYYCAVTSYYRRYGYWGQGTQVTVSS”, the “polyreactivity (PSR sort gate)” value was “high polyreactivity”.

Regarding “QVQLVESGGGLVQAGGSLRLSCAASGRTFRNYAMGWYRPAPGKERELVAAITWSGGSTYYADSVKGRFTISRDNAKNTVYLQMNSLKPEDTAVYYCNVRSYTRTYNYWGQGTQVTVSS”, the “polyreactivity (PSR sort gate)” value is given as “high polyreactivity”.

For the sequence “QVQLVESGGGLVQAGGSLRLSCAASGSIFSYNAMGWYRQAPGKERELVAAITWSGGSTYYADSVKGRFTISRDNAKNTVYLQMNSLKPEDTAVYDCAAKGGYSTVRPTYTKFNYWGLGTQVTVSS”, the “polyreactivity (PSR sort gate)” value is listed as “high polyreactivity”.

For the sequence “QVQLVESGGGLVQAGGSLRLSFAASGSTFSEYALGLYRQAPGKERELVAAITSSSGSTYYADSVKGRFTISRVNAKNTVYLQMNSLKPEDTAVYYCNAYYRTVYYDWGDYEYWGEGTQVTVSS”, the “polyreactivity (PSR sort gate)” value was “high polyreactivity”.

“QVHLVESGGGLVQAGGSLRLSCAASGSTFTYYAMGWYRQAPGKERELVAAITSGGSTNYADSVKGRFTISRDNAKNTVYLQMNSLKPEDTAVYYCAGDGQNFQFYVVSEEYDYWGQGTQVTVSS”: the “polyreactivity (PSR sort gate)” value is “low polyreactivity”.

In the case of “QVHLVESGGGLVQAGGSLRLSCAASGSTIDYKAMGWYRQAPGKERELVAAITTIGGSTYYADSVKGRFTISRDNAKNTVYLQMNSLKPEDTAVYYCAADLRVWGRSGYDYWGQGTQVTVSS”, the “polyreactivity (PSR sort gate)” value is reported as “low polyreactivity”.

For “QVQLVESGGGLVQAGGSLRLSCAASGSIFYGYAMGWYRPAPGKERELVAAISSGGRTYYADSVKGRFTISRDNAKNTVYLQMNSLKPEDTAVYHCAASYWKPHRESGYDYWGQGTQVTVSS”, the “polyreactivity (PSR sort gate)” value was “high polyreactivity”.

As to “QVQLVESGGGLVQAGGSLRLSFAASGRIFGGYGMGWYRQAPGKERELVAAIDADAGSTYYADSVKGRFTISRDNAKNTVYLQLNSLKPEDTAVYYCAPVDQVAVDKHDYWGQGTQVTVSS”, the “polyreactivity (PSR sort gate)” value is given as “low polyreactivity”.

Consider “QVQLVESGGGLVQAGGSLRLSCAASGGMGWYRQAPGKERELVATISSVGSTNYADSVKGRFTISRDNAKNTVYLQMNSLKPEDTAVYYCAADYGSDYTKGDYWGQGTQVTVSS”, for which the “polyreactivity (PSR sort gate)” value is given as “low polyreactivity”.

Turning to “QVQLVESGGGLVQAGGSLRLSCAASGSTFTTYAMGWYRQAPGKERELVAAITVDGGGTYYADSVKGRFTISRDNAKNTVYLQMNSLKPVDTAVYYCAAVTKLGYPPVNHLEDDYWGQGTQVTVSS”, the “polyreactivity (PSR sort gate)” value was “low polyreactivity”.

As for “QVQLVESGGGLVQAGGSLRLSCAASGSIFYGYAMGWYRQAPGKERELVAAISWSGTSTYYADSVKGRFTISRDNAKNTVYLQMNSLKPEDTAVYYCAADQFQGNSGFEYWGQGTQVTVSS”, the “polyreactivity (PSR sort gate)” value is “low polyreactivity”.

Turning to “QVQLVESGGGLVQAGGSLRLSCAASRITSYGYAMGWYRQAPGKERELVAAISRSGGTTYYADSVKGRFTISRDNAKNTVYVQMNILKPEDTAVYYCAVGKSHRGGGVTKFNYWGQGTQVTVSS”, the “polyreactivity (PSR sort gate)” value was “low polyreactivity”.

For the sequence “QVHLVESGGGLVQAGGSLRLSCAASGLIFSDYAMGWYRQAPGKERELVAAIRSGGRTYYADSVKGRFTISRDNAKNTVYLQMNSLKPEDTAVYYCNKLYRRSPVPREYDYWGQGTQVTVSS”, the “polyreactivity (PSR sort gate)” value was “high polyreactivity”.

On to “QVQLVQSGGGLVQAGGSLRLSCAASGITFIHNAMGWYRQAPGKERELVAAITTSDGSTYYADSVKGRFTISRDNAKYTVYFQMNSLTPEDTAVYYCAARGRHSGYYSFPYYYWGQGTQVTVSS”, for which the “polyreactivity (PSR sort gate)” value is recorded as “low polyreactivity”.

On to “QVQVVESGGGFVQAGGSLSLSCAASGSTFPYYVMGCYREAPGKERELVAAISGSGTRTYYADSVKGRFTISRDNAKNTVYLQMNSLKPEDTAVYYCAARKYPQGFDYWGQGTQVTVSS”, for which the “polyreactivity (PSR sort gate)” value is “low polyreactivity”.

With “QVQLVESGGGLVQAGGSLRLSCAASGSTFLDYAMGWYRQAPGNERELVAAISPDDSSTYYADSVKARFTISRDKAKNTVSLHMTSLKPEDTAVYYFAADDRDWVNYDYWGQGTQVTVSS”, the “polyreactivity (PSR sort gate)” value is on record as “low polyreactivity”.

As for “QVQLVESGGGLVQAGGSLRLSCAASGRTFVYNVMGWYRQAPGKERELVAAISSGGSTNYADSVKGRFTISRDNGKNTVYVQMNSLKPEDTAVYYCNAGTLYYRYRWGHYYDSWGQGTQVTVSS”, the “polyreactivity (PSR sort gate)” value is reported as “low polyreactivity”.

For the sequence “QVQLVESGGGLVQAGGSLRLSCAASGSTFIGYDMGWFRQAPGTERELVAAISYSDGTYYADSVKGRFTISRDNAKNTVYLQMNSLKPEDTAVYYCAADSLYYRYDYWGQGTQVTVSS”, the “polyreactivity (PSR sort gate)” value is listed as “low polyreactivity”.

As for “QVQLVESGGGLVQAGGSLRLSCAASGIIFPSYAMGWYRQAPGKERELVAAISLSGGRTYYADSVKGRFTISRDNAKNTVYLQMNSLKPEDTAVYYCAAYPTTRYSKYGYYWGQGTQVTVSS”, the “polyreactivity (PSR sort gate)” value is on record as “high polyreactivity”.

Consider “QVQLVESGGGLVQAGGSLSLSCAASGSILDRNTMGWYRQAPGKERELVAAITGSGSRTYYADSVKGRFTISRDNAKNTVYLQMNSLKPEDTAVYYCAAYTHSWTGDNYWGQGTQVTVSS”, for which the “polyreactivity (PSR sort gate)” value was “high polyreactivity”.

Regarding “QVQLVESGGGLVQAGGSLRLSCAASGSTFTPYAMGWYRQAPGKERELVAAISIRGGSTNYADSVKGRFTISRDNAKNTVYLQMNSLKPEDTAVYYCNAGRLRYIFKSYDYWGQGTQVTVSS”, the “polyreactivity (PSR sort gate)” value was “high polyreactivity”.

“QVQLVESGGGLVQAGGSLRLSCAASGSIFAVYAMGWYRQAPGKERELVASISRTGTTNYADSVKGRFTISRDNAKNTVYLQMNSLKPEDTAVYYCAADTWGLPDGYWYSEHPEFDYWGQGTQVTVSS”: the “polyreactivity (PSR sort gate)” value was “low polyreactivity”.

“QVQLVESGGGLVQAGGSLRLSCAASGSTFSKYVMGWYRQATGKERELVAAISGGDRTYYADSVKGRFTISRDNAKNTVYLQMNSLKPEDTAVYYCAAEVLKTRWSYDYWGQGTQVTVSS”: the “polyreactivity (PSR sort gate)” value is on record as “high polyreactivity”.

In the case of “QVQLVESGGGIVQAGGSLRLSCAASGSTFNYYAMGWYRQAPGKERELVAAISISGGSTYYADSVKGRFTISRDNAKNTVYLQMNSLKPEDTAVYYCAAVPYGFVGYDDYWGQGTQVTVSS”, the “polyreactivity (PSR sort gate)” value is given as “low polyreactivity”.

With “QVQLVETGGGLVQAGGSLRLSCAASGSIFYGYAMGWYSQSHGQEREFVAAITFSATSTYYADSVKGRFTISRDNAKNPVYLQMNSLKPEDTAVYYCAAVIGDWQYQYYYWGQGTLVTVSS”, the “polyreactivity (PSR sort gate)” value is listed as “low polyreactivity”.

Consider “QVQLVDSGGGLVQAGGSLRLSCAASGRTFPSYVMGWYRQAPGKERELVAAISWSGGSTSYADSVKGRFTISRDNAKNTVYLQMNSLKPEDTAVYYCNADRRPGGDYWGQGTQVTVSS”, for which the “polyreactivity (PSR sort gate)” value was “low polyreactivity”.

“QVQLVESGGGLVQAGGSLRLSCAASGRTFDIYAMGWYRQAPGKERELVAAINRSAGDTYYADSVKGGFTISRDNAKNTVYLQMNSLKPEDTAVYYCNAERVPYVPWLLYTEYVNYVYWGQGTQLTVSS”: the “polyreactivity (PSR sort gate)” value is “high polyreactivity”.

For “QVQLVESGGGLVQAGGSLRLSCAASGRTLPKYVMGWYRQAPGKERELVAAISSSGDSTYYADSVKGRFTISRDNAKNTVYLQMNSLKPEDTAVYYCGKYDLNTYGYWGQGTQVTVSS”, the “polyreactivity (PSR sort gate)” value was “low polyreactivity”.

On to “QVQLVESGGGLVQAGGSLRLSCAASGIIFSIYAMGWYRQAPGKERELVAAISGRGGRTYYADSVKGRFTISRDNAKNTVYLQMNSLKPVDTAVYYCIAEYLDLYDYWGQGTQVTVSS”, for which the “polyreactivity (PSR sort gate)” value is reported as “low polyreactivity”.

The record behind these values is the nanobody polyreactivity screen of Harvey et al. (2022).
